The record followed here is US20180186897A1 (INSTITUTE FOR RESEARCH IN BIOMEDICINE, published 2018).

First the molecules themselves.
B1: MGC4 (antibody)
VH: EVQLVESGGGLVQPGGSLRLSCEGSGFNSRSYWMTWVRQAPGKGLEWVASINQDGTEKNYVDSVKGRFTISRDSAKNSLYLQMSSLRADDTAVYYCARDRFCGGESHLHGEEDLPRPSISAEPDTVIPLGSHVTFVCRGPVGVHTFRLERGWRYNDTEDVSQAGPSESEARFRIDSVREGNAGLYRCIYYIAPKWSEQSDYLELRVKGGDVTWALLTYCGGDGEESDYPMDVWGKGTTVTVSS
VL: QTVVTQEPSLTVSPGGTVTLTCASSTGPVTSAYYPNWFQQKPGQAPRSLIYSINKKHSWTPARFSGSLLGGKAALTLSGVQPEDEADYYCLLSCGGAQPWVFGGGTKLTVQ
B2: MGD41 (antibody)
VH: EVQLVESGPGLVKPSGTLSVTCTISGGSINTDKWWTWVRQPPGKGLEWVGEVLHTGSTNYNPSLRGRVTISVDKSKNQFSLRLSSVTAADTAVYYCATISTLRPQRDIEDLPRPSLSAEPGTVVPLGSHVTFVCRGPVGVQTFRLERESRSTYNDTEDVSQPSPFESEARFRIDSVSEGNAGPYRCIYYKSPKWSDQSDYVELLVKGEDVTWAPPQSQLAPRACPQGELRTSTDIFSMNVWGKGTTVTVSS
VL: AIRMTQSPSSLSAFTGDRVTISCRASQDIGNYLDWYHQKPGRAPKLLIHGASTLLTGVPSRFSGSGSGTDFTLNITCLQSGDFGIYYCLQYYSSPPAFGPGTRLEIK
B3: MGD30 (antibody)
VH: QVQLQESGPGLVKPSETLSLSCAVTGGSITSSKWWTWVRQGPDKGLEWIGKIYHNGTTNYNPSLKSRVAMSVDKSRNQFSLRLTSVTAADTALYYCATASPFKSHHRTTEKLPRPSISAEPGTVIPLGSRVTFVCRGPVGVQTFRLERETSFTYNDTEDVSQVSPSESEARFRIDSVSEGYAGPYRCVYYKAPKWSEQSDYLDLLVKGEDVTWALTQPQLDPRACPQGDLRMSTDIYCMDVWGKGTTVTVSS
VL: AIRLTQSPSSLSASIGDRVTITCRASQDISTFLAWYQQESGKAPRLLIFAASTLQTGVPSRFSGSGSGTDFTLTISGLQSEDFATYYCQQYYCFPPDFGQGTRLDIK
B4: MGD33 (antibody)
VH: B3 VH with Q1H, R76K, L93V, S151R, F152S
VL: B3 VL with F32Y, T53S
B5: MGD56 (antibody)
VH: QVQLQESGPGLVKPSGTLSLTCAVSGGSITTNNWWSWVRQTPGKGLEWIGEIFRSGTTNYNPSLKSRVAISLDKSKNQFSLKLTSVTAADTAVYYCATASPFKSQRDTKDLPRPSLSAEPGTVIPLGSHVTFVCRGPVGVQTFRLQRESRSLYNDTEDVSHPSPSESEARFRIDSVSEGNAGPYRCVYYKSSKWSEESDCLELLVKTEDVTWARPQPQLDPRACPRGDLRISTDVYYMDVWGKGTTVTVSS
VL: AIRMTQSPSSLSASTGDRVTITCRASQAITSYLAWYRQKPGKAPDLLIYNASTLQSGVPSRFSASGSGTDFALTITGLQSEDFVIYFCQHYYTYPPAFGQGTRLEIK
B6: MGD39 (antibody)
VH: QVRLQESGPGLVKPSGTLSLTCTVSGGSISAYRWWSWVRQAPGKGLEWIGQVYNDGNTNYNPSLKGRVAMSVDKSKNRFSLRLASVTAADTAVYYCATISPLRPQSDTDDLPRPSISAEPGTVIPLGSHVTFVCRGPIGVQTFRLERERRSLYSDTEDVSQVSPFASEARFRIDSVSEGNAGPYRCIYYKDRKWSDQSDYLELLVKGEDVTWALPQSQLAPRACPQEELNISTDIFSMNVWGKGTTVTVSS
VL: AIRMTQSPASLSASIGDRVTITCRTSHDVGNYLDWYQQKPGKAPKLLIHGASTLQTGVPSRFSGSGAGTDFTLNITCLQSGDFAMYYCQQYYSSPPGFGQGTRLEIK
B7: MGD55 (antibody)
VH: B6 VH with R3Q, R33K, N54H, D55N, R149S
VL: B6 VL with H27Q
B8: MGC7 (antibody)
VH: EVQLVESGGDLVQPGGSLRLSCAASGFTFRNYWMSWVRQTPGKGLEWVANIRQDGSEKYYVDSVKGRFTISRDNAKNLLYLQMNSLRAEDTAVYYCVRDKFCSDENHMHVADDLPRPSISPEPGTVIPLGSHVTFVCRGPVGVQTFRLEKDRRSTYNDTEDVSQPSPSESEARFRIDSVTEGNAGLYRCVYYKPPKWSDQSDFLELLVKGEDVTWALFPHCGADGEDSDYYMDVWGKGTTVTVSS
VL: DIQMTQSPSSVSASVGDRVTITCRASQGLSTWLAWYQQKPGKAPKILIYAASSLQSGVPSRFSGSGSGTDFTLTISSLQPEDFATYYCQQANSFPLTFGGGTKVEIK
B9: MGD47 (antibody)
VH: QVRLQESGPGLVKPSGTLSLTCTVSGGSISGYKWWSWVRQAPGKGLEWIGQVYDDGDTNYNPDLKGRVALSVDKSKSRFSLSLASVTAADTAIYFCATISPLRPQSDTGDLPRPSISAEPGTAIPLGSQVTFVCRGPIGVQTFRLERESRALYNDSEDVSQVSPSASEARFRIDSVSEGNAGPYRCIYYKARRWSDQSDYLELLVKGEDVTWALPQSQLAPRACPQEDLNISTDIFSTNVWGKGTTVTVSS
VL: AIRMTQSPASLSASVGDRVTITCRTSQDVGNYLDWYQQKPGKAPKLLIHGASTLQAGVPSRFNGSGSGTDFTLGISCVQSGDFAIYYCQQYYTSPPVFGQGTRLEIK
B10: MGD34 (antibody)
VH: EVQLVESGPGLMKTSGTLSLTCAVSGDYVNTNRRWSWVRQAPGKGLEWIGEVHQSGRTNYNPSLKSRVTISVDKSKNQFSLKVDSVTAADTAVYYCARASPLKSQRDTEDLPRPSISAEPGTVIPLGSHVTFVCRGPVGVQTFRLERERNYLYSDTEDVSQTSPSESEARFRIDSVNAGNAGLFRCIYYKSRKWSEQSDYLELVVKGEDVTWALSQSQVDPRACPQGELPISTDIYYVDVWGNGTTFTVSS
VL: AIRMTQSPSSLSASPGDKVSITCRASQHINDSLAWFQQRPGKAPKLLIYGASNLHSGVPSRFSGTGSGTDFTLTITGLQSEDFATYFCQQCNCFPPDFGQGTRLEIK

Where a chain is given by its changes, count along the chain named.

One test addresses erythrocytes infected with P. falciparum field isolate 10936. Put plainly: flow cytometry, staining of IEs. A general note: In flow cytometry, cells or beads pass a laser one at a time.
For B1, the % parasite recognition came out at 2.3%.
B2 gave a % parasite recognition of 6.1%.
Consider B3, for which the % parasite recognition was 2.6%.
Consider B4, for which the % parasite recognition was 6.1%.
With B5, the % parasite recognition was found to be 2.4%.
On to B6, for which the % parasite recognition is 10.5%.
B7 had a % parasite recognition of 13.3%.
B8: the % parasite recognition worked out at 1.7%.
As for B9, the % parasite recognition was found to be 11.3%.
For B10, the % parasite recognition was 8.1%.

A further test addresses erythrocytes infected with P. falciparum field isolate 10975. Put plainly: flow cytometry, staining of IEs.
In turn, B1 had a % parasite recognition of 6.7%.
As to B2, the % parasite recognition was found to be 7.3%.
On to B3, for which the % parasite recognition turned out to be 6.5%.
The molecule B4 displayed a % parasite recognition of 14.2%.
The same measure, in the same setting: as for B5, the figure is 6.7%; as for B6, 14.1%; as for B7, 15.6%.
The same measure, in the same setting: then B8, with 0.7%; and B9, with 11.2%.
For B10, the % parasite recognition came to 11.2%.

Another test deals with erythrocytes infected with P. falciparum field isolate 11014. Description: flow cytometry, staining of IEs.
With B1, the % parasite recognition came out at 3.6%.
In the case of B2, the % parasite recognition came to 6.6%.
On the same count and under the same terms, as for B3, the figure is 3.4%; as for B4, 7%; as for B5, 9.5%.
B6: the % parasite recognition is 11.5%.
B7 returned a % parasite recognition of 14.7%.
As to B8, the % parasite recognition was determined as 2.9%.
Molecule B9 returned a % parasite recognition of 10.2%.
Molecule B10 gave a % parasite recognition of 13%.

The target in a further test is erythrocytes infected with P. falciparum field isolate 11019. Put plainly: flow cytometry, staining of IEs.
Turning to B1, the % parasite recognition is 31.1%.
Molecule B2 returned a % parasite recognition of 6.8%.
B3 returned a % parasite recognition of 4.4%.
As for B4, the % parasite recognition worked out at 9.6%.
The molecule B5 registered a % parasite recognition of 4.3%.
Still for that read-out and setting: then B6, with 43%.
B7 gave a % parasite recognition of 33.1%.
B8: the % parasite recognition is 13.8%.
B9 yielded a % parasite recognition of 24.6%.
In turn, B10 came in with a % parasite recognition of 46.6%.

For the next test, the target named is erythrocytes infected with P. falciparum field isolate 9106. Put plainly: flow cytometry, staining of IEs.
In turn, B1 had a % parasite recognition of 6.7%.
B2 registered a % parasite recognition of 3.8%.
On the same count and under the same terms, then B3, with 4.2%; and B4, with 4.3%; and B5, with 3.3%.
As for B6, the % parasite recognition turned out to be 13.7%.
With B7, the % parasite recognition amounted to 14.3%.
As to B8, the % parasite recognition came to 6.9%.
Still for that read-out and setting: as for B9, the figure is 10.7%; as for B10, 5%.

In another test the target is erythrocytes infected with P. falciparum field isolate 9215. Description: flow cytometry, staining of IEs.
For B1, the % parasite recognition worked out at 21.7%.
The molecule B2 had a % parasite recognition of 14.7%.
For B3, the % parasite recognition stood at 9%.
Regarding B4, the % parasite recognition came to 15.5%.
Molecule B5 had a % parasite recognition of 12%.
The molecule B6 showed a % parasite recognition of 37.4%.
Same read-out and setting: as for B7, the figure is 38.8%; as for B8, 19.3%.
B9 gave a % parasite recognition of 22.3%.
B10 returned a % parasite recognition of 35.7%.

In the next test the target is erythrocytes infected with P. falciparum field isolate 9605. Put plainly: flow cytometry, staining of IEs.
Regarding B1, the % parasite recognition came out at 22.2%.
Still for that read-out and setting: as for B2, the figure is 17.2%; as for B3, 7.4%.
On to B4, for which the % parasite recognition stood at 12.3%.
On to B5, for which the % parasite recognition came to 17.3%.
For B6, the % parasite recognition amounted to 31.7%.
In the case of B7, the % parasite recognition was 37.2%.
The same measure, in the same setting: then B8, with 22.8%; and B9, with 28.7%; and B10, with 28.4%.

Another test has as its target erythrocytes infected with P. falciparum field isolate 9775. Put plainly: flow cytometry, staining of IEs.
In the case of B1, the % parasite recognition worked out at 6.1%.
The molecule B2 gave a % parasite recognition of 8.6%.
Still for that read-out and setting: as for B3, the figure is 5.6%; as for B4, 8.5%; as for B5, 6.6%.
With B6, the % parasite recognition was found to be 15%.
For B7, the % parasite recognition was found to be 19.4%.
In turn, B8 registered a % parasite recognition of 4.6%.
Molecule B9 displayed a % parasite recognition of 14.4%.
Regarding B10, the % parasite recognition came to 16%.
